The target in assay [1] is T1, hCD22 fragment Bin 7, IVR7 (aa561-668), displayed on yeast cells (human, UniProt P20273 580-687).
T1 construct: range 561-668; Range is counted on the mature ECD, not on the UniProt entry; on P20273 it would be 580-687 (my arithmetic); also called CD22 Sub-Domain 7; not shown: Aga2-HA display fusion partner of vector pPNL6; MYC tag
T1 sequence (looked up): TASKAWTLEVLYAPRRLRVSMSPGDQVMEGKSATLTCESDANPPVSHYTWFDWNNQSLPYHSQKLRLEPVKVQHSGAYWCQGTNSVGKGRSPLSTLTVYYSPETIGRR
The assay is described as follows: yeast display cell ELISA. The protocol: (§1) The YSD vector (pPNL6) was from The Pacific Northwest National Laboratory, USA. […] The HRP activity was assayed with substrate TMB (tetramethyl benzidine) according to the manufacture’s conditions and read at OD₄₅₀.
(§2) The wells that gave rise to OD₄₅₀ above 0.25 were highlighted, indicating significant antibody-antigen interactions. All the sdAbs tested except hCd22_1ug-14 were assigned to specific Bin(s).
A general note: In an ELISA, binding on a coated surface is turned into a signal by an enzyme label.

Assay [2] concerns the target T2, recombinant extracellular domain of the predominant human CD22-beta isoform (CD22-ECD) (human, UniProt P20273 20-687, CHO-expressed glycoprotein. Capture on an SA chip implies biotinylation, but the patent does not state it for SPR.).
T2 construct: Expressed in CHO-3E7 cells, IMAC and SEC purified, monomeric fraction; Results say it was immobilized onto a CM5 dextran chip; also called human CD22-ECD; hCD22 ecto-domain
T2 sequence: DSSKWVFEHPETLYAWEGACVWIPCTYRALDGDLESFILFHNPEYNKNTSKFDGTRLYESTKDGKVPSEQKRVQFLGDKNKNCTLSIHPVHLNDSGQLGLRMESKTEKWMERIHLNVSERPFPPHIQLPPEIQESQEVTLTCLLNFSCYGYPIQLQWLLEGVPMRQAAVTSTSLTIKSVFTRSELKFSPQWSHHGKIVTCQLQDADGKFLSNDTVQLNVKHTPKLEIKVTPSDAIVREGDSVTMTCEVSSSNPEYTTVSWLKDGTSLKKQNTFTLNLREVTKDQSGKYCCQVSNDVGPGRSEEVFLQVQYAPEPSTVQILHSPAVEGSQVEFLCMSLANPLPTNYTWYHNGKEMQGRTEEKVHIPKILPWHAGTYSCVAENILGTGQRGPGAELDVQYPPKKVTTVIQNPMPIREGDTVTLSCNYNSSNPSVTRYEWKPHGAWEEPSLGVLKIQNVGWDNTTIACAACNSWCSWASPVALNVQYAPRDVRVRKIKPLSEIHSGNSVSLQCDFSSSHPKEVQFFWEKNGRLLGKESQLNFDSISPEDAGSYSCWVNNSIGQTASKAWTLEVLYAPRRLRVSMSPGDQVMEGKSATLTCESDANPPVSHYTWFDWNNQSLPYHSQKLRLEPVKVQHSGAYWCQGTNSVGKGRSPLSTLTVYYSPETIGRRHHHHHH
The assay is described as follows: SPR, Biacore T200, VHH over immobilized CD22-ECD. The protocol: For surface Plasmon resonance, 21 selected VHHs were passed though size exclusion columns, superdex 75 (GE Healthcare), respectively, in 10 mM HEPES, pH 7.4, containing 150 mM NaCl, 3 mM EDTA, monomeric sdAb fractions were collected and protein concentrations were determined by measuring absorbance at 280 nm (A280). Analysis were performed with Biacore T200 instrument (GE Healthcare). All measurements were carried out at 25° C. in 10 mM HEPES, pH 7.4, containing 150 mM NaCl, 3 mM EDTA and 0.005% surfactant P20 (GE Healthcare). Approximately 1919 RUs of the recombinant monomeric CD22-ECD (obtained after SEC purification of the CD22-ECD) were captured on SA sensor chip (GE Healthcare) at a flow rate of 5 uL/min. Various concentration of the monomeric VHHs were injected over CD22-ECD surface, respectively using an SA surface as a reference at a flow rate of 40 µL/min. Surfaces were generated by washing with running buffer. Data were analysed with BIAevaluation 4.1 software.
The monomeric fraction of all 21 VHHs were used for SPR experiment where the human CD22-ECD was immobilized onto the CM5 dextran chip and various VHH concentration (0.6-400 nM) were passed over the sensor chip. […] All of the data collected fit a 1:1 binding model.
In general terms: Surface plasmon resonance follows binding to a sensor surface in real time, without labels.

Assay [3] concerns the target T3, hCD22 fragment Bin 6, IVR6 (aa476-575), displayed on yeast cells (human, UniProt P20273 495-594).
T3 construct: range 476-575; Range is counted on the mature ECD, not on the UniProt entry; on P20273 it would be 495-594 (my arithmetic); also called CD22 Sub-Domain 6; not shown: Aga2-HA display fusion partner of vector pPNL6; MYC tag
T3 sequence (looked up): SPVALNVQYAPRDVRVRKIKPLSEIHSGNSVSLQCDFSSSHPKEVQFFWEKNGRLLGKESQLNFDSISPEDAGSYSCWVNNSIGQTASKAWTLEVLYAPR
The assay is described as follows: yeast display cell ELISA, biotinylated sdAb 250 nM. The protocol:
as §1, §2

Assay [4] deals with T3, hCD22 fragment Bin 6, IVR6 (aa476-575), …. The assay is described as follows: yeast display cell ELISA, heat denatured cells (80 C, 30 min). The protocol:
as §1
(§3) Table 7 depicts the assessment of the nature of the epitopes of CD22 sdAbs to determine if the epitopes for the sdAbs are continuous (linear) or non-continuous (conformational). […] The binding of each sdAb to native and denatured CD22 fragments was measured as OD₄₅₀, and the ratio of the binding to denatured CD22 to non-denatured CD22 was calculated, with the ratio ≥ 0.5 indicative linear (L), and the ratio < 0.5 indicative of conformational (C) epitopes.

Assay [5] shares this target. The assay is described as follows: yeast display cell ELISA, OD on denatured over non-denatured CD22 fragment. The procedure:
as §1, §3

In assay [6] the target is T1, hCD22 fragment Bin 7, IVR7 (aa561-668), …. The assay is described as follows: yeast display cell ELISA, biotinylated sdAb 250 nM. The protocol:
as §1, §2

Assay [7] has the same target. The assay is described as follows: yeast display cell ELISA, heat denatured cells (80 C, 30 min). The protocol:
as §1, §3

The target is the same in assay [8]. The assay is described as follows: yeast display cell ELISA, OD on denatured over non-denatured CD22 fragment. The procedure: as §1, §3

Data on eight molecules can be found in patent US20230265185A1 (NATIONAL RESEARCH COUNCIL OF CANADA, published 2023).

By Kd is commonly meant the equilibrium constant for the complex coming apart. As usually defined, the koff is a measure of how fast the partners let go of each other. As a reminder, the kon is the rate constant with which the complex forms.

B1: hCD221ug-36 (VHH)
VHH: EVQLVDSGGGLVQAGGSLRVSCEASGITFSRAAMGWYRQRPGKERERVAVVNSDSSTIYADSVKGRFTISRDNAKNTVYLQMNSLEPEDTAVYYCWSPGFGSYWGQGTQVTVSS
modifications: single biotin at the VHH C-terminal (biotinylation signal sequence)
notes: llama VHH, expressed in E. coli TG1, IMAC purified, monomeric SEC fraction; also called VHH # 22; 4-hCD22 1ug-36
As to B1, the binding result in assay [1] is listed as “no binding (tested: OD450 not above 0.25; sdAb 250 nM)”. Also, in assay [2], the Kd is 9.59 nM, the koff amounted to 0.00114 s⁻¹ and the association rate constant (kon) came to 119000 M⁻¹ s⁻¹. The OD450 in assay [3] amounted to 2.97 OD450. Also, the “Heat Inactivated CD22 OD” value in assay [4] was determined as 3.5 OD450. The “CD22 Ratio (D/ND)” value in assay [5] came out at 1.

B2: hCD221ug-10 (VHH)
VHH: QVQLVESGGGLVQAGGSLSVSCTASESTFSIMMGWFRQAPGKQREMVAVINSAGSTNYADSAEGRFTISRDLAKKTVSLQMNSLKPEDTAVYYCYVDGYFGQGTQVTVSS
modifications: single biotin at the VHH C-terminal (biotinylation signal sequence)
notes: llama VHH, expressed in E. coli TG1, IMAC purified, monomeric SEC fraction; also called VHH # 23; 5-hCD22 1ug-10
For the molecule B2, in assay [2], the dissociation constant Kd was 3.68 nM, the koff came out at 0.00176 s⁻¹ and the kon is 477000 M⁻¹ s⁻¹. The molecule further gave an OD450 in assay [6] of 0.75 OD450. Further, in assay [7], the “Heat Inactivated CD22 OD” value was found to be 0.32 OD450. For the same molecule, in assay [8], the “CD22 Ratio (D/ND)” value came out at 0.091.

B3: hCD22pas-64 (VHH)
VHH: QVQLVESGGGLVQAGGSLRLSCAASGSTFSLNTMAWYRQAPGNQREYVAAASSDGYTNYADSVRGRFTISRDNDKNTMYLQMNSLRPEDTAVYYCTWGTGRFADYIYWGQGTQVTVSS
modifications: single biotin at the VHH C-terminal (biotinylation signal sequence)
notes: llama VHH, expressed in E. coli TG1, IMAC purified, monomeric SEC fraction; also called VHH # 25; 7-hCD22 pas-64
Consider B3, for which, in assay [1], the binding result was “no binding (tested: OD450 not above 0.25; sdAb 250 nM)”. Also, in assay [2], the Kd is 250 nM, the koff is 0.0271 s⁻¹ and the on-rate (kon) is 108000 M⁻¹ s⁻¹. In addition, in assay [3], the OD450 worked out at 1.38 OD450. Besides, the “Heat Inactivated CD22 OD” value in assay [4] is 2.04 OD450. The “CD22 Ratio (D/ND)” value in assay [5] came to 0.684.

B4: hCD22pas-24 (VHH)
VHH: QVQLVESGGGLVQAGGSLRLSCSASGITSSINSMGWHRQAPGKQRELVASIGRGGSGSTKYADSGKGRFLISRDNNKNILFLEMNSLKPEDTADYYCLEVTTDLSSYWGRGTQVTVSS
modifications: single biotin at the VHH C-terminal (biotinylation signal sequence)
notes: llama VHH, expressed in E. coli TG1, IMAC purified, monomeric SEC fraction; also called VHH # 26; 8-hCD22 pas-24
With B4, in assay [2], the Kd came to 26 nM, the koff is 0.00386 s⁻¹ and the kon was 148000 M⁻¹ s⁻¹. This molecule also displayed an OD450 in assay [6] of 2.89 OD450. In addition, the “Heat Inactivated CD22 OD” value in assay [7] is 2.11 OD450. In assay [8], the “CD22 Ratio (D/ND)” value came out at 0.603.

B5: hCD221ug-61 (VHH)
VHH: QVQLVESGGGLVQAGGSLRLSCAASMSSFSQYVMYWYRQAPGKQRELVATITSYSNTNYADSVKGRFTISRDNAKSIAYLQMDSLKPEDTAVYYCNAQYGSTFIRNHWDDWGQGTQVTVSS
modifications: single biotin at the VHH C-terminal (biotinylation signal sequence)
notes: llama VHH, expressed in E. coli TG1, IMAC purified, monomeric SEC fraction; also called VHH # 14; 3-hCD22 1ug-61
In the case of B5, in assay [2], the dissociation constant Kd was found to be 0.546 nM, the koff is 0.000681 s⁻¹ and the kon stood at 1.25e+06 M⁻¹ s⁻¹. For the same molecule, the OD450 in assay [6] came to 2.84 OD450. Further, the “Heat Inactivated CD22 OD” value in assay [7] worked out at 2.33 OD450. For the same molecule, in assay [8], the “CD22 Ratio (D/ND)” value was 0.665.

B6: hCD22pas-32 (VHH)
VHH: QVQLVESGGGLVQAGGSLRLSCAVSGRIFRSYVLGWFRQAPGKERELVARIGWSDTYYADSVKGRFTISRDNAKNTVDLQMNSLKPEDTAVYYCAANSPPYGPQRDEFGYWGQGTQVTVSS
modifications: single biotin at the VHH C-terminal (biotinylation signal sequence)
notes: llama VHH, expressed in E. coli TG1, IMAC purified, monomeric SEC fraction; also called VHH # 15; 6-hCD22 pas-32
On to B6, for which the binding result in assay [1] is given as “no binding (tested: OD450 not above 0.25; sdAb 250 nM)”. In assay [2], the dissociation constant Kd was determined as 23.4 nM, the koff amounted to 0.00369 s⁻¹ and the kon is 158000 M⁻¹ s⁻¹.

B7: hCD221ug-13 (VHH)
VHH: QVQLVESGGGLVQAGDSLRLSCAGSGGSFSSVTMAWFRQAPGKDREFVAAITWSSPSTYYADSVKGRFTISRDNAKNTVYLQMNSLKPEDTAVYYCAGGRTGRGTSADTDEYNYWGQGTQVTVSS
modifications: single biotin at the VHH C-terminal (biotinylation signal sequence)
notes: llama VHH, expressed in E. coli TG1, IMAC purified, monomeric SEC fraction; also called VHH # 21; 1-hCD22 1ug-13
Consider B7, for which, in assay [2], the Kd is 2.91 nM, the dissociation rate constant (koff) stood at 0.000675 s⁻¹ and the kon amounted to 232000 M⁻¹ s⁻¹. The molecule further returned an OD450 in assay [3] of 0.433 OD450. The “Heat Inactivated CD22 OD” value in assay [4] turned out to be 0.272 OD450. For the same molecule, the “CD22 Ratio (D/ND)” value in assay [5] stood at 0.6.

B8: hCD221ug-80 (VHH)
VHH: QVQLVESGGGLVQPGGSLRLSCTFSGFTLDYYVMVWFRQAPGKEREAVSCITSDGVTYYADSVKGRFTISRDNAKNTVYLQMNRVKPEDTAVYYCAVDKPFYDGGIQYTCPVDFDSWGQGAQVTVSS
modifications: single biotin at the VHH C-terminal (biotinylation signal sequence)
notes: llama VHH, expressed in E. coli TG1, IMAC purified, monomeric SEC fraction; also called VHH # 1; 2-hCD22 1ug-80
With B8, in assay [2], the dissociation constant Kd is 30.3 nM, the dissociation rate constant (koff) amounted to 0.000633 s⁻¹ and the association rate constant (kon) stood at 20900 M⁻¹ s⁻¹. The molecule further came in with an OD450 in assay [3] of 2.25 OD450. Besides, the “Heat Inactivated CD22 OD” value in assay [4] stood at 2.62 OD450. In addition, the “CD22 Ratio (D/ND)” value in assay [5] was 1.02.
